{
  "source": "patent US20200172626A1",
  "target": "human 4-1BB expressed on cells (human) (UniProt Q07011)",
  "sequence (Q07011 24-255 limits assumed)": "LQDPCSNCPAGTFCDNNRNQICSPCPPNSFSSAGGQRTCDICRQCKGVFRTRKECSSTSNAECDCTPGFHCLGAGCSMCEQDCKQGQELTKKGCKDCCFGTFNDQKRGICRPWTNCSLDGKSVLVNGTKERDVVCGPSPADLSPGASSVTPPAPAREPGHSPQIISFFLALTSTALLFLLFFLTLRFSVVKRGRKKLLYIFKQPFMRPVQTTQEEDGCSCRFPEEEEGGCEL",
  "experiment": "flow cytometry dot plot (CD8-BV510 against BBK-4-Dylight488) on human CD8+ T cells activated with anti-CD3 for 2 days; antibody at 25 ng/ml, anti-mIgG-Dylight488",
  "data": [
    {"substance": "BBK-4 murine anti-human 4-1BB antibody", "values": [
      {"measurement": "% of 4-1BB-positive CD8 T cells", "value": 1.72, "unit": "%"}
    ]}
  ]
}
